Like-named read-outs stand apart in the source and are kept apart here.
Biological target: T1, HEPM cell-surface receptors for TGF-β (Homo sapiens, UniProt Q03167)
T1 construct: endogenous in cells; host or cells: HEPM (human embryonic palatal mesenchyme) cells, intact monolayers
T1 sequence (Q03167 21-851): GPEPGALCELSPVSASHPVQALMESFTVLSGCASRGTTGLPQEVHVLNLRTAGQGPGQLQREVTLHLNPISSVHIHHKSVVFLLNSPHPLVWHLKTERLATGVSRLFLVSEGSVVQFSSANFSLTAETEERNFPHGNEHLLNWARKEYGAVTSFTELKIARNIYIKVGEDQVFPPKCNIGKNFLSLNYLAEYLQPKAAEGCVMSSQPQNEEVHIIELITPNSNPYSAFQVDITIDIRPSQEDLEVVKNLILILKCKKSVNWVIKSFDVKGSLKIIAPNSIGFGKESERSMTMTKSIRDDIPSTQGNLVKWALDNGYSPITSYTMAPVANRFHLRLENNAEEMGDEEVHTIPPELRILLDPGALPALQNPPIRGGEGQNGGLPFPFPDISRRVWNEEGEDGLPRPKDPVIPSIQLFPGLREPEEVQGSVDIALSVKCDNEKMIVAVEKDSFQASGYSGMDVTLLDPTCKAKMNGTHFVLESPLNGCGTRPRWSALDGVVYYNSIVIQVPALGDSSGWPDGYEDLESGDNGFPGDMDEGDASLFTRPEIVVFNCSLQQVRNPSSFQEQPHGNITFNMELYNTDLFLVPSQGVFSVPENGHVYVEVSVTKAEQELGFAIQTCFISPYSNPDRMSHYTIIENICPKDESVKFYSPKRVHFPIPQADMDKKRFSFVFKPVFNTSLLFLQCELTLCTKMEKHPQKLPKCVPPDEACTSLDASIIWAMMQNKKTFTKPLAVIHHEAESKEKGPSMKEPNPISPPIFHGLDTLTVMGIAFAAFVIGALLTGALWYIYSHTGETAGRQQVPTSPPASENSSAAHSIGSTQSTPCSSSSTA
Experiment: Radioreceptor assay: [125I]-iodo-TGF-β1 in competition with unlabeled TGF-β1, Scatchard analysis
Assay type: binding
Conditions: for Kd: untreated HEPM cells, Scatchard two-site model
Method: HEPM cells were grown to confluence (1×10^5 cells/well) in 24-well Costar tissue culture plates. Prior to the binding assay, cells were pre-incubated in serum-free growth medium at 37° C. for 4 hours to allow for the dissociation of TGF-β from occupied cells surface receptors. The resulting monolayers were washed 2 times in binding buffer (Dulbecco's MEM+0.1% BSA+25 mM HEPES). 250 μl of binding buffer containing 0.5 μg/ml [^125 I]-iodoTGF-β1, (specific activity of 100 μCi/μg) together with increasing amounts of unlabeled TGF-β1 were added to duplicate wells. Steady state binding was carried out at 4° C. for 3 hours. After incubation cells were washed 3 times with cold binding buffer and solubilized in 200 μl of Triton solution (20 mM HEPES, 1% Triton X-100, 10% glycerol, 0.01% BSA, pH 7.4). Radioactivity was determined using a gamma spectrometer. Non-specific binding was determined in the presence of a 1,000-fold molar excess unlabeled TGF-β1.
The radioreceptor assay described in Materials and Methods was used to characterize the affinity and number of cell-surface receptors for TGF-β on HEPM cells. Specific binding of [^125 I]-iodo-TGF-βin these assays was 20% of the total radioligand present. […] Half-maximal displacement of radioligand occurred at 100 pM (2.6 ng/ml) unlabeled TGF-β1. Competitive binding data were plotted according to the method of Scatchard (Scatchard, et al., 1947, Ann. NY Acad Sci 51:660-672) and the results are presented in FIG. 5. A distinctly curvilinear isotherm was obtained indicating the presence of at least two classes of binding sites on HEPM cells. […] Quantitative analysis determined that HEPM cells contain a total of 287,000 TGF-β receptors per cell (55,400 high affinity and 231,600 low affinity sites).

half-maximal displacement of radioligand (unlabeled TGF-β1 vs [125I]-iodo-TGF-β1, 4° C., 3 hours): 2.6 ng/mL
IC50 (unlabeled TGF-β1 vs [125I]-iodo-TGF-β1, 4° C., 3 hours, read-out: half-maximal displacement of radioligand / half-maximal receptor occupancy): 0.1 nM
Kd (read-out: kd, high-affinity (low capacity) site): 0.058 nM
Kd (read-out: kd, low-affinity (high capacity) site): 0.898 nM
Substance: TGF-β1: Transforming growth factor-Beta type 1; two identical disulfide linked subunits having molecular weights of 13,000; recombinant material used

Reference: patent publication US5340925A, “Normal human growth regulatory receptor for TGF-β” (Oncogen, priority 1992, dated 1994)
